Data reported in publication PMC4945142 (Molecular Biology of the Cell, 2016).
“And” between values parts separate entries of the source, which are not always exact repeats. Identical values can stand only once. Each block holds one molecule with its values, some of them ahead of it.

Key:
[1] = target: E. coli-expressed GST-Spc110p^1-220 (budding yeast) (UniProt P32380); experiment: SEC-MALS
[2] = target: γ-tubulin small complex (γTuSC) with γ-tubulin^S48C/S153C, Spc97-YFP and Spc98-CFP (budding yeast) (UniProt P53378); experiment: FRET or BRET
SEC-MALS = target: the molecule itself; experiment: SEC-MALS

stoichiometry N [1]: 2 and 4
Molecule: E. coli-expressed GST-Spc110p^1-220 (from UniProt P32380 1-220) (domain or fragment)

Molecule: Spc110p^1-220 tetramer (Spc110p^1-220 fused with the tetramer-forming mutant coiled-coil domain of GCN4, GCN4-LI) (from UniProt P32380 1-220)
Kd [2]: 4 nM | Kd2 (Spc110p tetramer with a single γTuSC) [2]: 43 nM | Kd3 (a second γTuSC binding to the complex of Spc110p tetramer and one γTuSC) [2]: 3 nM

B1: Untagged Spc110p^1-220 (domain or fragment, budding yeast, UniProt P32380 1-220, looked up)
chain: MDEASHLPNGSLKNMEFTPVGFIKSKRNTTQTQVVSPTKVPNANNGDENEGPVKKRQRRSIDDTIDSTRLFSEASQFDDSFPEIKANIPPSPRSGNVDKSRKRNLIDDLKKDVPMSQPLKEQEVREHQMKKERFDRALESKLLGKRHITYANSDISNKELYINEIKSLKHEIKELRKEKNDTLNNYDTLEEETDDLKNRLQALEKELDAKNKIVNSRKVD
stoichiometry N (SEC-MALS): 2
